assay: soluble on expression in E. coli; label from the status in PepcDB or PDB records

| Sequence | soluble on expression in E. coli |
| --- | --- |
| MGSDKIHHHHHHMAKFDLTTPWGRFKTYLHYLWNDHAYLRLGFSNAHWISPELVRANQPWPFQLAWWKKRGIKTIVNLRGGFDGSFYALEKDACERLGLNFVDFVITSREVPIRERVRGAKELFERIEYPALMHCKSGADRAGIMSVFYAHYRLGQPIREAMQQLGPRYLHIKHGNTGVLDYVFEQYLEKGEPKGLTFSDWVESDDYDPVEMKKTFRAGMLGKVLTDKILRRE | not soluble |
| MGSDKIHHHHHHMTSFNSNELQKLYIAFFGRPCDPAGMNYWLSKSEDKANLIDVAKAFSSQEEYKKSLTSVNSIEFQINQIYLNLFARKADFDSLNTWSLKCKRGELKIYELASMLTIEQSNIEEKIDNISLKDVEVLEKKVQAAQLFTDQISKDICWINAYKPDSIDPWILGKALQVGINYLNKVDSSYHLDKYAVTEILHKMSFEKINTSTKAIIKIRNLSLTIPISFKHDQKLSNLLTKGVLNSIIGGQLVKNKTTTKIEALRNINLTIMNGERVALIGHNGSGKTSFLKVISGIYLPTEGDLDVEVDVYPMLQKSFLTSTDLTGVDAAKAHYLLVNKSLNGFDQFLQDIIEFSGLGEFISLPIKTYSEGMSARLIFSILTSIPHDCLAIDEGFGTGDSDFFERAEKRMKSFMNSSGTLILASHSEHLLKQFCTRGIVFNHGQVVYDGSLDASLNYYHTHDYIHSNDN | not soluble |
| MTLKFSYFGTRGIGEPIRMLLTDQEVAFIDHRFSWEQWADIKPTMIFGSCPCLTMGDKEIVQSGTIIRHLARIHGLNGTNEEETIFIDMFYEGVRDLHATYATMIYQNYENGRQPFIQDVLPEHLARLEKLFRTYENGENFVAGANISYVDYVLFEELDIQKILSPTALDRTPQLKKFHEQFGERKNLTEYLKKRAIMKTPVNGNGKQ | not soluble |
| MGSSHHHHHHGGTGENLYFQGGSGKNYFYIPIADDMHCHLRQGDMLDFTVNSIRRGGCNRVLVMPNTHPIISTCSDAQKYLYQLKSRDDDIEYLMTLYLNKNTDENDILSNYYKCNLQGVKIYPSNVTTNSSDGITSLEPYYKVFHALEKLNKSIHIHCEEPNINPLYAEEKYLPHIHDLAIKFPGLNIVLEHISSSESINVIKEFRNVAGSITPHHLYLTIDDVVNMDIYDHAIDNTYIEKYIKNTYHYCKPLPKLLEDKIALQDVIKDDFPRVFLGSDSAPHYKVMKRKPYYKPGIYTQPFLINYVAHILNKFDALDKMENFTSKNASLFLNLAEKKKLAKYYICVEKHPFKLPREYNGVVPFLAGKTLDYDIHYVSKF | not soluble |
| SRDGSVAPKERINIRYVPATGDTQEDVELPLSMMVVGDFTARADETPIEERTPINIDKDNFNDVLEGMSPNVKVNVENRLSDEEGAQIGVDLTFQNMKDFSPEAIAKSVPELNSLLELREALVALKGPLGNVPAFRKKIASVLQDEEARKKLLDELSIG | not soluble |
| SPKRETKKIKPSQEVIKEGPFLVAIHLKGIYMSNYTNSPCAACKFLRRKCTSDCVFAPYFPPEEPTKFANVHRIFGASNVSKILHEVAPHQREDAVNSLAYEAEARLKDPVYGCVGAISVLQRQVLRLQRELEETNADLMRYAGCLGGETTSAYGGRRG | soluble |
| MGSDKIHHHHHHMASSIQGQENVMSQSEFDSALPNGIGLAPYLRMKQEGMTENESRIVEWLLKPGNLSCAPAIKDVAEALAVSEAMIVKVSKLLGFSGFRNLRSALEDYFSQSEQVLPSELAFDEAPQDVVNKVFNITLRTIMEGQSIVNVDEIHRAARFFYQARQRDLYGAGGSNAICADVQHKFLRIGVRCQAYPDAHIMMMSASLLQEGDVVLVVTHSGRTSDVKAAVELAKKNGAKIICITHSYHSPIAKLADYIICSPAPETPLLGRNASARILQLTLLDAFFVSVAQLNIEQANINMQKTGAIVDFFSPGALK | not soluble |
| MGSDKIHHHHHHMLIAQVTDIHLGFEPDSPDEFNRQRLDRVLAELAAMDPRPDLLLATGDLIDRGDRESYERLRDAFSNLPFPVHYALGNHDERETFSAVFPEAAFTDGFLQYIVDAGPLRIIVLDTLEEGRHGGAFCDVRARWLKARLDEAPDTRTLIVQHHPPVEVGIAWMNTDPAEPWVERLGQCLRGRTNVVGVVCGHIHRAITTAWEGTVVATCPSTAPQVALDLRPIDPDVPDQRNLIIADPPGYALHWFNGRELITHWDTAEDHQVLARYDANLQGMIQHMLAERPGAQAAE | not soluble |
